In patent US20180265915A1, “TRANSCRIPTION FACTOR DECOYS” (priority 2008, published 2018):

Key:
K. pneumoniae [1] = assay: KP_Sig TFD growth assay in vitro; assay type: cell-based, Klebsiella pneumoniae; conditions: PCR_TFD, transfected using a cell penetrating peptide
From the text: Cells were transfected as described in Example 13, using a cell penetrating peptide. […] The two controls used were: untreated cells (K. pneumoniae) and a control TFD consisting of a scrambled sequence.

K. pneumoniae [2] = assay: Sigma 54 TFD growth assay, cell penetrating peptide transfection; assay type: cell-based, Klebsiella pneumoniae; conditions: 10 nM TFD; M9 media; complexed with cell penetrating peptide
Method: Growth assays were performed as described in Section 4.1 with the difference being that the media used was M9 media (Sambrook et al (1989) Molecular Cloning. 2nd Edition vol. 3 p.A3). The media was not supplemented with any co-transfectant.
Transfection was achieved by complexing the TFD with a cell penetrating peptide. The peptide consisted of two portions: a linear chain of nine D-arginines and a previously described peptide sequence found to be capable of penetrating the membrane of K. pneumoniae (Vaara, Antimicrobial Agents and Chemotherapy (1996) 40:1801). The positively charged arginines (R9) serve to bind the phosphate backbone of the TFD through a charge interaction. The use of such R9 tails to complex transfecting moieties to transfect bacteria has been described previously (Kim, Molecular Therapy (2006) 14:343). The entire sequence of the peptide used was:
TFDs were mixed with increasing amounts of IKFLKFLKKL-R9 peptide in a TE based buffer supplemented with 5% glucose. The mixture was incubated at room temperature for 1 hour and then either used directly in transfections or analysed by agarose gel electrophoresis. Typically the minimum amount of IKFLKFLKKL-R9 was used that caused the complex with DNA not to run in the gel; i.e. the charge of the nucleic acid backbone had been neutralised by binding of poly-arginine. […]

[3] = test system: methicillin-resistant strains (MRSA); assay: Sig TFD growth assay on MRSA clinical isolates; assay type: cell-based, Staphylococcus aureus; conditions: 10 nM TFD; DOTAP, 60 nM Gramicidin
Method: Cholesterol/Cy5-labeled decoy polynucleotides were prepared as in Example 5.1. Typically 1 μg of Sig TFD was then complexed with 0.3 μl of the liposomal transfection reagent DOTAP (1,2-dioleoyl-3-trimethylammonium propane; Roche) and incubated at room temperature for 10 min. The assays to determine their effect on growth of bacterial cells were performed using 96 well plates, each well containing 200 μl of broth consisting of BHI media (Becton Dickinson) supplemented with 60 nM Gramicidin (Sigma Corporation. Cat# G5002). 1 μl of various concentrations of a Cholesterol/Cy5-labeled decoy complexed with TFD were added to each well and the effect on bacterial growth of clinical isolates of S. aureus that had been determined to be methicillin-resistant strains (MRSA) was monitored. Growth was monitored by measuring absorbance of the broth at time intervals during incubation. The plates were incubated at 37° C. with shaking and absorbance readings (at 450 nM) were taken using a plate reader.

S. aureus ATCC 6538NA = assay: Fur TFD growth assay in non-iron-limiting and iron-limiting media; assay type: cell-based, Staphylococcus aureus; conditions: 1 nM TFD; DOTAP, 60 nM gramicidin
Method: S. aureus ATCC 6538NA cultures were grown and maintained in BHI media (Becton Dickenson). Frozen stocks were prepared by mixing equal volumes of a culture in early exponential growth (OD of 0.3 at A600) with 50% glycerol and freezing at −80° C. BHI was the media used for non-iron limiting conditions and NRPMI, which had been prepared as previously described (Skaar et al. 2004), for iron-limiting growth conditions.
A stock solution of gramicidin (Sigma) was freshly prepared by dissolving 21 mg in 1 ml methanol, diluted prior to use in water and further diluting 1/100 in growth medium to give a final concentration of 60 nM. Supplemented media was inoculated 1/100 with the frozen S. aureus stock and incubated at room temperature for 10 min. TFD-DOTAP complexes were formed by mixing 1 ug of TFD with 2 μg of DOTAP (Roche) and incubating at room temperature for 10 min on the bench. The TFD complex was then mixed with inoculated medium, aliquoted into 96 well flat-bottomed plates and growth was analysed by culturing at 37° C. with shaking in a BioTek plate reader.
To achieve transfection, TFDs were mixed with the commercially available lipid preparation DOTAP to form a stable complex and shield the negative charge of the phosphate backbone. The TFD-DOTAP complex was then mixed with S. aureus in BHI, a non-iron limiting medium, which had been supplemented with 60 nM gramicidin. […]

S. aureus = assay: Quantification of TFD number by real-time qPCR; assay type: cell-based, Staphylococcus aureus; conditions: in the presence of the transfection reagents; BHI
Method: Cells from individual wells were washed twice in PBS (phosphate buffered saline) and resuspended in 100 μl water. 1 μl of each sample was used in each qPCR reaction, mixing DNA standards or samples with primers to either amplify the TFD (Tef and Ter; SEQ ID NOs 1 & 2) or 16S rRNA (stypF, 5′-ACGGTCTTGCTGTCACTTATA-3′ (SEQ ID NO: 36); stypR, 5′-TACACATATGTTCTTCCCTAATAA-3′ (SEQ ID NO: 37)) in 12.5 ul of SYBR Green DNA mix supplemented with 0.5 μl of ROX (Invitrogen). The resultant data was used to calculate the number of TFDs present per genome.

EMRSA15 = assay: Lag-time growth assay with antibiotics on EMRSA15; assay type: cell-based, Staphylococcus aureus; conditions: 10 nM TFD
Method: Sig dumbbell TFD was prepared as described in Example 9.1 (see below). A growth assay was carried out as described in Example 5.2 with a well-characterised MRSA strain, EMRSA15.
For the cultures treated with the Sig TFD, the lag-time is the delay in growth compared to that seen with the Control TFD in the presence of antibiotic.
Lagtime is defined as the time that growth is delayed (in comparison to a mock-transfected culture) due to treatment of the TFD.

[4] = test system: clinically-isolated MRSA strain MRSA-5; assay: Dumbbell Sig TFD growth assay on a clinically-isolated MRSA strain; assay type: cell-based, Staphylococcus aureus; conditions: 10 nM TFD, dumbbell configuration
Method: A growth assay was performed as described in Example 5.1 using the Sig TFD in its dumbbell configuration and a clinically-isolated MRSA strain.

B1: Control TFD: unrelated sequence of similar nucleotide composition that does not occur in the S. aureus genome, SEQ ID NOs: 34 & 35 (nucleic acid, listed as Mycobacterium smegmatis)
chain 1: TGGCCACGGATCCGGGTGACTGCGGGTCCGTA
chain 2: ACGGACCCGCAGTCACCCGGATCCGTGGCCAA
modifications: further chemistry not given here
With B1 the “effect on K. pneumoniae cell growth in vitro” value (K. pneumoniae [1]) was “no effect on cell growth”, the “inhibition of growth of K. pneumoniae culture” value (K. pneumoniae [2]) was “no inhibition was seen” and the “effect on growth of MRSA strains in BHI medium” value [3] was “no effect on bacterial growth”. The “growth of S. aureus in BHI, non-iron limiting medium” value (S. aureus ATCC 6538NA) was “reduction of the S. aureus growth rate”, the “number of TFDs detected per genome” value (S. aureus) was 5340 TFDs per genome and the Lagtime (EMRSA15; Ciprofloxacin 0.5 mg/L (text: 0.5 mg/ml)) was 0.3 h. The Lagtime (EMRSA15; Erythromycin 0.5 mg/L (text: 0.5 mg/ml)) was -0.3 h, the Lagtime (EMRSA15; Methicillin 2 mg/L (text: 2 mg/ml)) was 0.2 h and the “inhibition of cell growth of clinically-isolated MRSA strain” value [4] was “could not”.
